Reference: patent publication US20070098735A1, “Methods for the Elimination of Pathogens and Other Particulate Agents” (priority 2005, published 2007)

Columns and labels:
[1] = biological target: Toll-like receptor-7 (TLR7) (murine) (UniProt P58681); assay: cell-based or functional assay
[2] = tested on: full thickness wounds of naïve mice; assay: Adoptive transfer of pre-treated RAW 264.7 macrophages into wounded mice, wound closure; assay type: in vivo; settings: 400,000 macrophages pre-treated at 30 μg/dose; day 2 post surgery
Protocol: Macrophage Cell Culture, Pre-treatment, and Adoptive Transfer. RAW 264.7 macrophages (ATCC) were grown as described by ATCC. Cells were harvested by gently scraping them from the cell culture flasks, centrifuged and washed once in cultured grade PBS. […] They were then washed 3 times with PBS, and were re-suspended to achieve a concentration of 400,000, 40,000, or 4,000 cells per 0.5 ml PBS. Adoptive transfer of these cells was performed by subcutaneous injections in the nape of the neck using a 25-gauge needle in mice that were wounded as previously described. Adoptive transfers were given on days 0, 2 and 4 post-operatively.
Macrophages were treated in vitro with either HSPs or non-HSP controls and transferred into naïve wounded mice (as described in Materials and Methods) to test if HSPs could in part mediate some of their activity through macrophages. […] Data is plotted as average percent wound closure ±SEM on day 2. *P values were obtained using the Student's t-test by comparing HSP treatment to all of the non-HSP control treatments. The least significant P value was reported.
Titratability of adoptive transfer was examined by transferring 4,000, 40,000 or 400,000 macrophages pre-treated as described in Materials and Methods.

[3] = tested on: full thickness surgical wounds on the dorsum of BALB/cJ mice; assay: Closure of full thickness surgical wounds, percent wound closure; assay type: in vivo
Protocol: Surgery and Treatment. Mice were anesthetized using Ketamine (2.0 mg/mouse) and Xylazine (0.1 mg/mouse) were administered intraperitoneally (IP) and the dorsal skin was shaved. After sterile prepping of the area, a full thickness circular wound, 8 mm diameter, was made on the dorsal skin using a disposable biopsy punch (Miltex Inc, York, Pa.) on the midline of the dorsum approximately at the iliac crest. The mice were then randomly assigned into the treatment groups. Initial wound measurements were performed while the mice were still anesthetized. Mice were then treated on days 0, 2, 4, and 6 unless otherwise specified. All agents used as treatment were diluted in 0.5 ml of PBS and injected using a 25-gauge needle in the subcutaneous space in the nape of the neck. The surgical procedures, post-operative monitoring, and safety concerns were approved by the Institutional Animal Care and Usage Committee.
Measurements and Analysis. Wound healing of open wounds is a complex process with many parameters to consider. […] The wound surface area was determined by measuring the craniocaudal and lateromedial distances using vernier calipers in perpendicular axis on days 0, 2, 4, 6, 9, and 11 postoperatively unless noted. Changes in wound area were expressed as percent wound closure. Wound closure data was plotted as average percent wound closure ±SEM unless otherwise noted. All calculations and data analysis were performed using Microsoft Excel and Sigma Plot. Sigma Plot was used to perform Student's t-tests for reported P values.
Full thickness surgical wounds were created on the dorsum of BALB/cJ mice as described in Methods. Wounds were made on day 0. Subsequently, the wounds were treated with exogenous injections of HSP70, HSP90, gp96 (30 μg/dose) or buffer administered subcutaneously (SC) on days 0, 2, 4 and 6 following surgery (FIG. 6A). The wounds were measured on days 0, 2, 4, 6, 9, 11 unless otherwise noted. Wounds were measured serially, percent wound closure was calculated and plotted against time in order to quantitate the rate of healing by secondary intention. […] Data is plotted as average percent wound closure ±SEM on days indicated. Two mice from each treatment group (PBS (n=12), HSP70 (n=11), HSP90 (n=12), and gp96 (n=11)) were sacrificed for histology on days 2, 4, and 6 post-surgery (data not shown). The P values obtain using the Student's t-test.
Results are of average percent wound closure ±SEM on day 2 post surgery. The *P values were obtained using the Student's t-test by comparing HSP treatment to all of the non-HSP control treatments. The least significant P value was reported. […] Doses higher than 50 μg/dose were not tested.

RAW 264.7 macrophages = assay: In vitro macrophage phagocytosis of wound debris; assay type: cell-based, murine; settings: RAW264.7, labeled wound debris
[4] = tested on: Murine macrophage lines (RAW264.7, J774.A1 or RAW264NO-); assay: Phagocytosis assay in vitro (uptake of Alexa Fluor 488-labeled particles); assay type: cell-based
Protocol: Phagocytosis Assay in vitro. RAW 264.7, RAW264.7 (NO-) and J774A.1 cells were cultured in DMEM or RPMI (RAW NO-) with 10% FCS, harvested, and washed. 3×10^5 cells/well were incubated in serum-free Earle's minimal essential medium (EMEM) in a 24-well plate for 1 hour at 37° C. Alexa Fluor® 488-labeled particles (inert polystyrene microspheres; or yeast, Saccharomyces cerevisiae or Gram-negative bacteria, Escherichia coli, 40 particles/macrophage) were added and co-incubated in a dark environment for 60 minutes in serum free EMEM with or without HSPs, LPS, or control proteins. At the end of 60 minutes incubation, the plate was covered in a dark container on ice. Specific measures were taken to exclude the fluorescence that resulted from particles that were outside of the cell or sticking to the surface of the cell. […] Specifically, trypan blue (0.8 mg/ml) was added for 60 seconds and plates were analyzed immediately using FluorImager SI (Molecular Dynamics/Amersham). Since the emission of Alexa Fluor® 488, about 519 nm at an excitation of about 490 nm, falls within the absorbance range of trypan blue (475-675 nm), the fluorescence of the sample only represents the intracellular fluorescence. External or surface-bound fluorescence is quenched. Using Student's t test, the results were analyzed and P-values were calculated.
HSP-mediated phagocytosis was quantified by measuring the internalized fluorescence measured by FluorImager SI and Relative Mean Fluorescence Intensity (RMFI) was compared between the treatment groups (as indicated). All the treatment groups were compared to medium alone using the Student's t test and significance denoted by P<0.01. The error bar represents one standard deviation. The results shown are a cumulative analysis of 3 experiments, 3 wells/group.

[5] = tested on: macrophages (TNF-α release); assay: TNF-α release by LPS-treated macrophages in presence or absence of serum; assay type: cell-based; settings: serum-free conditions
Protocol: HSP70 used in all assays was purified using LPS-free sterile packaged plastic ware, baked glass ware (420° F. for 4 hours) and using endotoxin-free culture grade reagents to minimize inadvertent LPS contamination. Further, LPS levels and activity in the purified HSPs were quantified and confirmed to be <1 EU/mg of protein. Next, HSPs and LPS were compared for their influence on phagocytosis in presence or absence of serum. These conditions were specifically chosen since LPS-binding protein (LBP), an essential mediator for LPS function, is not present in serum-free conditions. As a control, macrophages were treated with LPS in presence or absence of serum and their ability to elicit TNF-α release was compared (FIG. 3A). […] Briefly, macrophages were treated with HSP70 (100 μg/ml) or LPS (different doses ranging 25 ng-1 μg/ml) in serum-free conditions for 1 hour and a phagocytosis assay was performed. […] The error bar is one standard deviation. The results shown are a cumulative analysis of 3 experiments, 3 wells/group.

TNF-α = assay: Wound lysate cytokine production (cytometric bead assay), TNF-α; assay type: in vivo, mice; settings: SC 30 μg dose
Protocol: Wound and Skin Lysate Cytokine Production. Mice were wounded and treated as stated previously. Wounds were harvested 24 hours after treatment, pulverized in 5 ml of PBS and large debris was removed by straining the wound lysate through a […] mesh strainer. The soluble fraction was then centrifuged for 20 minutes at 14,000 rpm. Protein concentration was then assessed by Bradford assay. Skin samples were taken and processed in the same manner. 250 μg of each sample was then tested for the presence of monocyte chemotactic peptide-1 (MCP-1), tumor necrosis factor-α (TNF-α), and interleukin 6 (IL-6) using the BD Biosciences cytometric bead assay (CBA) mouse inflammatory kit (BD Biosciences Pharmingen, San Diego, and CA.) following the manufacture's protocol.
The wounds were lysed and MCP-1, TNFα and IL-6 levels were quantified (pg/ml of 250 μg of protein). Each sample was tested in duplicate. *P values are the significant difference of cytokines found in wound lysate compared to skin lysate in a treatment group. **P values are the significant differences of cytokines found in PBS treated mice wound lysate compared to the treatment group wound lysate.

Sequence of Toll-like receptor-7 (TLR7) (murine) (P58681 27-1050): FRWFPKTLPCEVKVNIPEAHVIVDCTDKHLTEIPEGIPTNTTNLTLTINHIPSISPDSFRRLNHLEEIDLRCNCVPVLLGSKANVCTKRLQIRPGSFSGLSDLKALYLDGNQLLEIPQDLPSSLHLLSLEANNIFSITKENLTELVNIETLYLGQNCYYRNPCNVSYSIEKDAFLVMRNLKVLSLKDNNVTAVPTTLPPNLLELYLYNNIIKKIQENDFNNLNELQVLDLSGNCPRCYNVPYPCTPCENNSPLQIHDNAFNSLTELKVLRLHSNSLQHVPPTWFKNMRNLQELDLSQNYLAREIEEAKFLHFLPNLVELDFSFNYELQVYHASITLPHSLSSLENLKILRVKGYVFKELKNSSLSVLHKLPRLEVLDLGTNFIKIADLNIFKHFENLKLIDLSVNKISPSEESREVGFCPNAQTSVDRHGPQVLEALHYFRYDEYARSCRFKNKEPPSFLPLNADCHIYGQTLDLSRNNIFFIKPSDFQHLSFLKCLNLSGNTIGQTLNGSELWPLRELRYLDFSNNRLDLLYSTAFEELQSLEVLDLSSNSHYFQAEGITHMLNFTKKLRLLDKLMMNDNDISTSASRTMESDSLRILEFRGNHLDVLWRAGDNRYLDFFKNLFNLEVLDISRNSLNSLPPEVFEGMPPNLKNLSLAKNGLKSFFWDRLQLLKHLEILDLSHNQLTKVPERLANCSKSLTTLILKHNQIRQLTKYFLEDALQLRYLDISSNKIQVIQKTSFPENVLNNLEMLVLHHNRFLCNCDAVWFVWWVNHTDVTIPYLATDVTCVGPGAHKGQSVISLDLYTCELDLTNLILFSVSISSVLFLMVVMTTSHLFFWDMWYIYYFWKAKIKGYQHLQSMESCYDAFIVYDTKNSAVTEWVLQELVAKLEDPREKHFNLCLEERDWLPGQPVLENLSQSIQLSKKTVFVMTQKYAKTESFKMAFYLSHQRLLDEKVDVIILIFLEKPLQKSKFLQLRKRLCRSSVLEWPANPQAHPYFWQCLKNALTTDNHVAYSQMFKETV

HSP70 purified from murine livers (from UniProt P17879 2-642)
decrease in phagocytic activity of RAW264.7 cells treated with HSP70 in the presence of known TLR7-ligands, compared with HSP70 alone [1]: 45 to 65%

lipopolysaccharide [LPS, reference compound]
wound healing on day 2 after adoptive transfer of pre-treated macrophages [2]: 21%
wound healing on day 2 ([3]; 30 μg/dose, day 2 post surgery): 25%
wound closure of non-HSP controls compared to PBS control ([3]; day 2 post surgery): not significantly different to the PBS control
benefit to the wounds ([3]; same doses as HSPs and significantly smaller quantities): not beneficial to the wounds at any of the doses tested
mean fluorescence intensity compared to medium control (RAW 264.7 macrophages): not significantly different to the medium control
ability to enhance phagocytosis ([4]; serum-free conditions, 1 hour, HSP70 100 μg/ml, LPS 25 ng-1 μg/ml, heating 100° C. for 20 minutes): unable to enhance phagocytosis in serum-free conditions
stimulation of macrophages (TNF-α release) [5]: ineffective at stimulating macrophages

B1: gp96: heat shock protein (HSP90 family, endoplasmic reticulum) purified from murine livers (protein, UniProt P08113 22-802, looked up)
Endoplasmin: DDEVDVDGTVEEDLGKSREGSRTDDEVVQREEEAIQLDGLNASQIRELREKSEKFAFQAEVNRMMKLIINSLYKNKEIFLRELISNASDALDKIRLISLTDENALAGNEELTVKIKCDKEKNLLHVTDTGVGMTREELVKNLGTIAKSGTSEFLNKMTEAQEDGQSTSELIGQFGVGFYSAFLVADKVIVTSKHNNDTQHIWESDSNEFSVIADPRGNTLGRGTTITLVLKEEASDYLELDTIKNLVRKYSQFINFPIYVWSSKTETVEEPLEEDEAAKEEKEESDDEAAVEEEEEEKKPKTKKVEKTVWDWELMNDIKPIWQRPSKEVEEDEYKAFYKSFSKESDDPMAYIHFTAEGEVTFKSILFVPTSAPRGLFDEYGSKKSDYIKLYVRRVFITDDFHDMMPKYLNFVKGVVDSDDLPLNVSRETLQQHKLLKVIRKKLVRKTLDMIKKIADEKYNDTFWKEFGTNIKLGVIEDHSNRTRLAKLLRFQSSHHSTDITSLDQYVERMKEKQDKIYFMAGSSRKEAESSPFVERLLKKGYEVIYLTEPVDEYCIQALPEFDGKRFQNVAKEGVKFDESEKTKESREATEKEFEPLLNWMKDKALKDKIEKAVVSQRLTESPCALVASQYGWSGNMERIMKAQAYQTGKDISTNYYASQKKTFEINPRHPLIRDMLRRIKEDEDDKTVMDLAVVLFETATLRSGYLLPDTKAYGDRIERMLRLSLNIDPEAQVEEEPEEEPEDTSEDAEDSEQDEGEEMDAGTEEEEEETEKESTEKDEL
modifications: complexed with endogenous peptides
notes: heat shock protein (HSP90 family, endoplasmic reticulum) purified from murine livers
wound closure compared to controls ([3]; 5 μg/dose and 50 μg/dose, day 2): significant wound closure
wound healing at Day 11 ([3]; 30 μg/dose SC on days 0, 2, 4 and 6): completely healed
dose with the most significant difference in wound closure ([3]; doses 5, 30, 50 μg/dose tested): 30 μg/dose
uptake of microbial or non-microbial materials as compared to control proteins or buffer ([4]; HSPs 100 μg/ml, P<0.01 vs medium alone): increase in uptake
TNF-α content of wounds compared to LPS or MSA (TNF-α): not significantly elevated
TNF-α content of wounds compared to buffer group (TNF-α): significantly increased
